Laboratory results published in US20130315910A1 (Xencor, published 2013).

T1: human FcγRIIb receptor protein (R&D Systems) (human, UniProt P31994 46-217)
T1 construct: Bought protein injected over captured antibody in Biacore; also called CD32b
T1 sequence (looked up): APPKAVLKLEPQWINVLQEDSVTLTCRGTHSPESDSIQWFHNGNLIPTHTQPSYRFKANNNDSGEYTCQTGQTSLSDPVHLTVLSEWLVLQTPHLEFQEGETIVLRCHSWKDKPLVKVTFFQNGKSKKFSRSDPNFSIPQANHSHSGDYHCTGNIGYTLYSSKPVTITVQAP

T2: mFcγRIIb (Mus musculus, UniProt P08101)
T2 construct: extracellular region, C-terminal His- and GST-tag; also called mouse FcγRII
T2 sequence (receptor extracellular region, looked up): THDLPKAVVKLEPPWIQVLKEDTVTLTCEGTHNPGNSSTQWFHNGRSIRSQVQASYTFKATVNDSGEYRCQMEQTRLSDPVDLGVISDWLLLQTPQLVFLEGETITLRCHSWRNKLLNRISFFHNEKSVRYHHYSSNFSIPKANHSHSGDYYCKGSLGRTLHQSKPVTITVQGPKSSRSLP

T3: cynoFcγRIIb (Macaca fascicularis, UniProt A0A140HDP4)
T3 construct: extracellular region, C-terminal His- and GST-tag; also called cynomolgus monkey FcγRIIb
T3 sequence (receptor extracellular region): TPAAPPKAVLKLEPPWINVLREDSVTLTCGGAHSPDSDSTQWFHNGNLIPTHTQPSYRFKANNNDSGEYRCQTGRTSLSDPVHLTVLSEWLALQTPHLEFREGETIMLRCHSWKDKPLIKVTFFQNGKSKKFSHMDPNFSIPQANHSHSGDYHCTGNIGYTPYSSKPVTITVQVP

T4: human FcγRIIa (131R), His- and GST-tagged (human, UniProt P12318 34-217)
T4 construct: Expressed in HEK293T cells, purified by nickel chromatography; also called R131 FcγRIIa; not shown: 6xHis and GST tags of the pTT5 vector
T4 sequence (looked up): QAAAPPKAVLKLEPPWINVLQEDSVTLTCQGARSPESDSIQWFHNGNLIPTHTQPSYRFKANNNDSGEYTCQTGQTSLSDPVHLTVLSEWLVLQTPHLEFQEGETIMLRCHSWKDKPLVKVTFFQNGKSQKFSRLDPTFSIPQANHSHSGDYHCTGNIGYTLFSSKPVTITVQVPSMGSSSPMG

T5: human FcγRIIa (131H), His- and GST-tagged (human, UniProt P12318 34-217)
T5 construct: also called H131 FcγRIIa; HIIa; not shown: 6xHis and GST tags of the pTT5 vector
T5 sequence (looked up): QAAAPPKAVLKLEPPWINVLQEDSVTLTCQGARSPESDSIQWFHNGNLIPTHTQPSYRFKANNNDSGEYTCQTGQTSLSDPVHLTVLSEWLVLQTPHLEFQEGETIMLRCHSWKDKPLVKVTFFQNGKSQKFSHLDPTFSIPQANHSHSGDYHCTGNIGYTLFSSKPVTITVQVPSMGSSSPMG


Legend:
Assay in all cases: SPR
[1] = biological target: T1, human FcγRIIb receptor protein (R&D …)
Experimental: (§1) Variants were screened for receptor affinity using Biacore™ technology, also referred to as Biacore herein, a surface plasmon resonance (SPR) based technology for studying biomolecular interactions in real time. SPR measurements were performed using a Biacore 3000 instrument (Biacore, Piscataway, N.J.). A protein A/G (Pierce Biotechnology) CM5 biosensor chip (Biacore) was generated using a standard primary amine coupling protocol. All measurements were performed using HBS-EP buffer (10 mM HEPES pH 7.4, 0.15 M NaCl, 3 mM EDTA, 0.005% vol/vol surfactant P20, Biacore). Antibodies at 20 nM or 50 nM in HBS-EP buffer were immobilized on the protein A/G surface and FcγRs were injected. After each cycle, the surface was regenerated by injecting glycine buffer (10 mM, pH 1.5). Data were processed by zeroing time and response before the injection of FcγR and by subtracting appropriate nonspecific signals (response of reference channel and injection of running buffer). Kinetic analyses were performed by global fitting of binding data with a 1:1 Langmuir binding model using BIAevaluation software (Biacore).

[2] = biological target: T2, mFcγRIIb
Experimental: as §1
(§2) Variant antibodies were tested for their affinity to mouse or cynologous monkey FcγRs using Biacore SPR as described above. Specifically, antibodies were first immobilized on a protein A/G chip to high density, and then followed by injections of the extracellular domain of the mouse or cynologous monkey FcγR of interest. Both association and dissociation phases were tracked in real time using the Biacore technology.

[3] = biological target: T3, cynoFcγRIIb
Experimental: as §1, §2

[4] = biological target: T4, human FcγRIIa (131R), His- and …
Experimental: as §1

[5] = biological target: T6, human FcγRI receptor protein (R&D Systems) (human, UniProt P12314 16-288)
T6 construct: also called soluble FcγRI; solFcγRI
Experimental: as §1

[6] = biological target: T5, human FcγRIIa (131H), His- and …
Experimental: as §1

T6 sequence (P12314 16-288 limits assumed): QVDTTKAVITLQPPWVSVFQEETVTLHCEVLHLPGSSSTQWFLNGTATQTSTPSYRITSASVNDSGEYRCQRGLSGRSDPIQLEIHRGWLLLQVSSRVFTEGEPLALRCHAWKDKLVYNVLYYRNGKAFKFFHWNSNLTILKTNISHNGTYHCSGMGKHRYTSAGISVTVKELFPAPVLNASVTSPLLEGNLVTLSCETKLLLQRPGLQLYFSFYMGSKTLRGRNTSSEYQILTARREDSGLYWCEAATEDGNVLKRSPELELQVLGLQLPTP

| Fold vs WT IgG1 [1] [fold] | Kd [1] [nM] | Fold vs WT IgG1 (Kd) [2] [fold] | Fold vs WT IgG1 (Kd) [3] [fold] | Fold vs WT IgG1 [4] [fold] | Kd [4] [nM] | binding result [1] | binding result [4] | Kd [5] [nM] | Kd [6] [nM] | Binder |
| --- | --- | --- | --- | --- | --- | --- | --- | --- | --- | --- |
| 12.3 | 119 | 1.48 | 4.88 | – | – | – | – | – | – | H268D/L328F/I332E (antibody, human IgG1, kappa, HuAM4G7 anti-CD19 IgG1 (m1) with these Fc substitutions, EU index; copies: 2 + 2) heavy: EVQLVESGGGLVKPGGSLKLSCAASGYTFTSYVMHWVRQAPGKGLEWIGYINPYNDGTKYNEKFQGRVTISSDKSISTAYMELSSLRSEDTAMYYCARGTYYYGTRVFDYWGQGTLVTVSSASTKGPSVFPLAPSSKSTSGGTAALGCLVKDYFPEPVTVSWNSGALTSGVHTFPAVLQSSGLYSLSSVVTVPSSSLGTQTYICNVNHKPSNTKVDKKVEPKSCDKTHTCPPCPAPELLGGPSVFLFPPKPKDTLMISRTPEVTCVVVDVSDEDPEVKFNWYVDGVEVHNAKTKPREEQYNSTYRVVSVLTVLHQDWLNGKEYKCKVSNKAFPAPEEKTISKAKGQPREPQVYTLPPSREEMTKNQVSLTCLVKGFYPSDIAVEWESNGQPENNYKTTPPVLDSDGSFFLYSKLTVDKSRWQQGNVFSCSVMHEALHNHYTQKSLSLSPGK light: DIVMTQSPATLSLSPGERATLSCRSSKSLQNVNGNTYLYWFQQKPGQSPQLLIYRMSNLNSGVPDRFSGSGSGTEFTLTISSLEPEDFAVYYCMQHLEYPITFGAGTKLEIKRTVAAPSVFIFPPSDEQLKSGTASVVCLLNNFYPREAKVQWKVDNALQSGNSQESVTEQDSKDSTYSLSSTLTLSKADYEKHKVYACEVTHQGLSSPVTKSFNRGEC |
| 8.53 | 172 | 1.5 | 4.16 | – | – | – | – | – | – | H268E/L328Y/I332E (antibody, human IgG1, kappa, HuAM4G7 anti-CD19 IgG1 (m1) with these Fc substitutions, EU index; copies: 2 + 2) heavy: EVQLVESGGGLVKPGGSLKLSCAASGYTFTSYVMHWVRQAPGKGLEWIGYINPYNDGTKYNEKFQGRVTISSDKSISTAYMELSSLRSEDTAMYYCARGTYYYGTRVFDYWGQGTLVTVSSASTKGPSVFPLAPSSKSTSGGTAALGCLVKDYFPEPVTVSWNSGALTSGVHTFPAVLQSSGLYSLSSVVTVPSSSLGTQTYICNVNHKPSNTKVDKKVEPKSCDKTHTCPPCPAPELLGGPSVFLFPPKPKDTLMISRTPEVTCVVVDVSEEDPEVKFNWYVDGVEVHNAKTKPREEQYNSTYRVVSVLTVLHQDWLNGKEYKCKVSNKAYPAPEEKTISKAKGQPREPQVYTLPPSREEMTKNQVSLTCLVKGFYPSDIAVEWESNGQPENNYKTTPPVLDSDGSFFLYSKLTVDKSRWQQGNVFSCSVMHEALHNHYTQKSLSLSPGK light: DIVMTQSPATLSLSPGERATLSCRSSKSLQNVNGNTYLYWFQQKPGQSPQLLIYRMSNLNSGVPDRFSGSGSGTEFTLTISSLEPEDFAVYYCMQHLEYPITFGAGTKLEIKRTVAAPSVFIFPPSDEQLKSGTASVVCLLNNFYPREAKVQWKVDNALQSGNSQESVTEQDSKDSTYSLSSTLTLSKADYEKHKVYACEVTHQGLSSPVTKSFNRGEC |
| 0.734 | 2000 | – | 0.832 | 0.756 | 1140 | – | – | – | – | L235H (antibody, human IgG1, kappa, HuAM4G7 anti-CD19 IgG1 (m1) with this Fc substitution, EU index; copies: 2 + 2) heavy: not shown light: DIVMTQSPATLSLSPGERATLSCRSSKSLQNVNGNTYLYWFQQKPGQSPQLLIYRMSNLNSGVPDRFSGSGSGTEFTLTISSLEPEDFAVYYCMQHLEYPITFGAGTKLEIKRTVAAPSVFIFPPSDEQLKSGTASVVCLLNNFYPREAKVQWKVDNALQSGNSQESVTEQDSKDSTYSLSSTLTLSKADYEKHKVYACEVTHQGLSSPVTKSFNRGEC |
| – | – | – | 1.44 | – | – | no binding | no binding | – | – | L235W (antibody, human IgG1, kappa, HuAM4G7 anti-CD19 IgG1 (m1) with this Fc substitution, EU index; copies: 2 + 2) heavy: not shown light: DIVMTQSPATLSLSPGERATLSCRSSKSLQNVNGNTYLYWFQQKPGQSPQLLIYRMSNLNSGVPDRFSGSGSGTEFTLTISSLEPEDFAVYYCMQHLEYPITFGAGTKLEIKRTVAAPSVFIFPPSDEQLKSGTASVVCLLNNFYPREAKVQWKVDNALQSGNSQESVTEQDSKDSTYSLSSTLTLSKADYEKHKVYACEVTHQGLSSPVTKSFNRGEC |
| – | 6.91 | – | – | – | – | – | – | 0.326 | 817 | S239D/S267E/H268E (antibody, human IgG1, kappa, HuAM4G7 anti-CD19 IgG1 (m1) with these Fc substitutions, EU index; copies: 2 + 2) heavy: EVQLVESGGGLVKPGGSLKLSCAASGYTFTSYVMHWVRQAPGKGLEWIGYINPYNDGTKYNEKFQGRVTISSDKSISTAYMELSSLRSEDTAMYYCARGTYYYGTRVFDYWGQGTLVTVSSASTKGPSVFPLAPSSKSTSGGTAALGCLVKDYFPEPVTVSWNSGALTSGVHTFPAVLQSSGLYSLSSVVTVPSSSLGTQTYICNVNHKPSNTKVDKKVEPKSCDKTHTCPPCPAPELLGGPDVFLFPPKPKDTLMISRTPEVTCVVVDVEEEDPEVKFNWYVDGVEVHNAKTKPREEQYNSTYRVVSVLTVLHQDWLNGKEYKCKVSNKALPAPIEKTISKAKGQPREPQVYTLPPSREEMTKNQVSLTCLVKGFYPSDIAVEWESNGQPENNYKTTPPVLDSDGSFFLYSKLTVDKSRWQQGNVFSCSVMHEALHNHYTQKSLSLSPGK light: DIVMTQSPATLSLSPGERATLSCRSSKSLQNVNGNTYLYWFQQKPGQSPQLLIYRMSNLNSGVPDRFSGSGSGTEFTLTISSLEPEDFAVYYCMQHLEYPITFGAGTKLEIKRTVAAPSVFIFPPSDEQLKSGTASVVCLLNNFYPREAKVQWKVDNALQSGNSQESVTEQDSKDSTYSLSSTLTLSKADYEKHKVYACEVTHQGLSSPVTKSFNRGEC |
| 11.9 | 123 | 45.3 | 1.31 | – | – | – | – | – | – | S239D/A327D/L328Y (antibody, human IgG1, kappa, HuAM4G7 anti-CD19 IgG1 (m1) with these Fc substitutions, EU index; copies: 2 + 2) heavy: EVQLVESGGGLVKPGGSLKLSCAASGYTFTSYVMHWVRQAPGKGLEWIGYINPYNDGTKYNEKFQGRVTISSDKSISTAYMELSSLRSEDTAMYYCARGTYYYGTRVFDYWGQGTLVTVSSASTKGPSVFPLAPSSKSTSGGTAALGCLVKDYFPEPVTVSWNSGALTSGVHTFPAVLQSSGLYSLSSVVTVPSSSLGTQTYICNVNHKPSNTKVDKKVEPKSCDKTHTCPPCPAPELLGGPDVFLFPPKPKDTLMISRTPEVTCVVVDVSHEDPEVKFNWYVDGVEVHNAKTKPREEQYNSTYRVVSVLTVLHQDWLNGKEYKCKVSNKDYPAPIEKTISKAKGQPREPQVYTLPPSREEMTKNQVSLTCLVKGFYPSDIAVEWESNGQPENNYKTTPPVLDSDGSFFLYSKLTVDKSRWQQGNVFSCSVMHEALHNHYTQKSLSLSPGK light: DIVMTQSPATLSLSPGERATLSCRSSKSLQNVNGNTYLYWFQQKPGQSPQLLIYRMSNLNSGVPDRFSGSGSGTEFTLTISSLEPEDFAVYYCMQHLEYPITFGAGTKLEIKRTVAAPSVFIFPPSDEQLKSGTASVVCLLNNFYPREAKVQWKVDNALQSGNSQESVTEQDSKDSTYSLSSTLTLSKADYEKHKVYACEVTHQGLSSPVTKSFNRGEC |
| 0.0237 | 61900 | – | 1.01 | 0.0511 | 16800 | – | – | – | – | L234Y (antibody, human IgG1, kappa, HuAM4G7 anti-CD19 IgG1 (m1) with this Fc substitution, EU index; copies: 2 + 2) heavy: not shown light: DIVMTQSPATLSLSPGERATLSCRSSKSLQNVNGNTYLYWFQQKPGQSPQLLIYRMSNLNSGVPDRFSGSGSGTEFTLTISSLEPEDFAVYYCMQHLEYPITFGAGTKLEIKRTVAAPSVFIFPPSDEQLKSGTASVVCLLNNFYPREAKVQWKVDNALQSGNSQESVTEQDSKDSTYSLSSTLTLSKADYEKHKVYACEVTHQGLSSPVTKSFNRGEC |
